This note sets out measurements from PMC11014985, “TCTP regulates genotoxic stress and tumorigenicity via intercellular vesicular signaling” (EMBO Reports, 2024).

The target of the experiment is DDX3-DQAD (human) (UniProt O00571).

B1: TCTP (translationally controlled tumor protein) (natural protein)
chain: MIIYRDLISHDEMFSDIYKIREIADGLCLEVEGKMVSRTEGNIDDSLIGGNASAEGPEGEGTESTVITGVDIVMNHHLQETSFTKEAYKKYIKDYMKSIKGKLEEQRPERVKPFMTGAAEQIKHILANFKNYQFFIGENMNPDGMVALLDYREDGVTPYMIFFKDGLEMEKC
Turning to B1, the increase of the let-7c-5p signal bound to DDX-DQAD on adding TCTP (500 nM TCTP, 300 nM DDX3-DQAD, 50 nM biotinylated let-7c-5p, non-denaturing gel), in the presence of AMP-PNP came out at 200% and the increase of the let-7c-5p signal bound to DDX-DQAD on adding TCTP (500 nM TCTP, 300 nM DDX3-DQAD, 50 nM biotinylated let-7c-5p, non-denaturing gel), in the presence of ATP came to 50%.
